This is an account of results in publication PMC7062751.

Assay [1] concerns the target free SUMO1 (UniProt P63165). The experiment in a line: pull-down (IP: TEX264-GFP) with immunoblot, quantified band ratio. As to conditions: purified GFP-tagged TEX264 incubated with free SUMO1; parent: 1.
The target in assay [2] is TEX264^SIM2*-FLAG (SIM2-mutated variant) (UniProt Q9Y6I9). The experiment in a line: co-IP; tandem affinity purification from ΔTEX264 HEK293 co-expressing FLAG-tagged TEX264 and HA-SUMO1: FLAG IP under native conditions, then anti-HA IP after boiling in 1% SDS; eluates probed for TOP1.
Sequence of UniProt Q9Y6I9 (Q9Y6I9 whole entry, stated change not applied): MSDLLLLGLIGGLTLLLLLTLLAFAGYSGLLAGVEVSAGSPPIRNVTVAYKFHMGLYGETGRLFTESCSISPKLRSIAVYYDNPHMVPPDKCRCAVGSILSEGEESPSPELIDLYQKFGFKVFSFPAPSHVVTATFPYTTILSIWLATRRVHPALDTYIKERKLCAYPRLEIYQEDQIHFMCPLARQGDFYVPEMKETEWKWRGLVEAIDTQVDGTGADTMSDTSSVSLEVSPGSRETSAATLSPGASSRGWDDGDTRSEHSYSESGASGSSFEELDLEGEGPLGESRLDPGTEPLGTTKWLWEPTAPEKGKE

Sequence of UniProt P63165 (P63165 1-97): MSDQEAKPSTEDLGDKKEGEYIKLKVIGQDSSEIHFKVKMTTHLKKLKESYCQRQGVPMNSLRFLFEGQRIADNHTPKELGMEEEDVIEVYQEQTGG

Regarding “GFP-tagged TEX264, wild type (from UniProt Q9Y6I9) SIM1*”, in assay [1], the ratio to parent worked out at 0.25.
Take “GFP-tagged TEX264, wild type (from UniProt Q9Y6I9) SIM2*”: in assay [1], the ratio to parent is 0.
In turn, “SUMO1-modified TOP1 (HA-SUMO1 conjugated to endogenous TOP1) (from UniProt P11387 1-765; P63165 1-97)” came in with a percent less co-immunoprecipitated than with TEX264^WT in assay [2] of 70%.
